Results taken from PMC9482650, “Quantitative fragmentomics allow affinity mapping of interactomes” (Nature Communications, 2022).

Tests used:
Assay in all cases: holdup assay
Design in all cases: key: below the threshold = too weak to quantify, mostly under pKd 3.1 to 4
APBA2_1, Q99767 = target: T1, APBA2_1, Q99767
T1 sequence (Q99767 563-664, limits assumed, looked up): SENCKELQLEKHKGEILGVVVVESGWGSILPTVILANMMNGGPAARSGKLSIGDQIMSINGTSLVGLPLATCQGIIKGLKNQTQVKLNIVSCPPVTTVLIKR

CASK, O14936 = target: CASK, O14936
CASK, O14936, sequence (O14936 487-570): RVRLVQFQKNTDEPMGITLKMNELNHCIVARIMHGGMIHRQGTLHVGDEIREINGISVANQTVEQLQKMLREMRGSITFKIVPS

DFNB31_1, Q9P202 = target: T2, DFNB31_1, Q9P202
T2 sequence (Q9P202 135-233, limits assumed, looked up): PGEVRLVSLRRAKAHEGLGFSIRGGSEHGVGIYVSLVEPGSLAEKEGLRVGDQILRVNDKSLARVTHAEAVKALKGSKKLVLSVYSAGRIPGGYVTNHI

DFNB31_3, Q9P202 = target: T3, DFNB31_3, Q9P202
T3 sequence (Q9P202 811-907, limits assumed, looked up): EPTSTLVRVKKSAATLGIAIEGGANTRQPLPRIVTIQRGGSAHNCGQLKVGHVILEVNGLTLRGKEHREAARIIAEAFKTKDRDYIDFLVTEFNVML

DLG1_1, Q12959 = target: DLG1_1, Q12959
DLG2_2, Q15700 = target: DLG2_2, Q15700
DLG2_2, Q15700, sequence (Q15700 189-283): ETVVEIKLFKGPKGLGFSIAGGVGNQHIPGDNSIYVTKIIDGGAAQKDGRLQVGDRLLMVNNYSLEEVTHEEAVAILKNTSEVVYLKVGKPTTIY

DLG3_1, Q92796 = target: T4, DLG3_1, Q92796
T4 sequence (Q92796 125-227, limits assumed, looked up): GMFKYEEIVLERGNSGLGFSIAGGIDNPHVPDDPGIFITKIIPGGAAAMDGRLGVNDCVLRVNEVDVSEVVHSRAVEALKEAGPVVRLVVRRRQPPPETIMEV

FRMPD2_3, Q68DX3 = target: FRMPD2_3, Q68DX3
FRMPD2_3, Q68DX3, sequence (Q68DX3 1073-1166): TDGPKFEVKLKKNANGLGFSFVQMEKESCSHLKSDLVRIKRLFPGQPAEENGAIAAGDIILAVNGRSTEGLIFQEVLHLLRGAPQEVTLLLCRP

GOPC, Q9HD26 = target: GOPC, Q9HD26
GORASP1, Q9BQQ3 = target: GORASP1, Q9BQQ3
GORASP1, Q9BQQ3, sequence (Q9BQQ3 1-208): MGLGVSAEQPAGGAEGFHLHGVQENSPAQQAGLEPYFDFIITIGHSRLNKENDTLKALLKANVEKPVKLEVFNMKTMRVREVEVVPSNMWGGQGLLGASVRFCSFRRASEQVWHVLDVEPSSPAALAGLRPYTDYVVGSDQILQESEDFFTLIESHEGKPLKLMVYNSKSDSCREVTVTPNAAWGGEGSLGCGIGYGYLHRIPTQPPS

HTRA2, O43464 = target: HTRA2, O43464
HTRA2, O43464, sequence (O43464 355-458): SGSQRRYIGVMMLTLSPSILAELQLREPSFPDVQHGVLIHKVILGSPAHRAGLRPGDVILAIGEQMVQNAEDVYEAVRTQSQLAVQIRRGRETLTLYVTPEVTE

Inadl_5, Q8NI35 = target: Inadl_5, Q8NI35
Inadl_5, Q8NI35, sequence (Q8NI35 673-780): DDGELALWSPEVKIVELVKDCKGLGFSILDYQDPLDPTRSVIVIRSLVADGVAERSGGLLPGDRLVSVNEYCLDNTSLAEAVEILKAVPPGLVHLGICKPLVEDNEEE

Inadl_8, Q8NI35 = target: Inadl_8, Q8NI35
Inadl_8, Q8NI35, sequence (Q8NI35 1425-1530): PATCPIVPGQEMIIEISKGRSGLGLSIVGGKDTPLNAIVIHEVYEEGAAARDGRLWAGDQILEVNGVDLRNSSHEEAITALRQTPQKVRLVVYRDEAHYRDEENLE

Inadl_9, Q8NI35 = target: Inadl_9, Q8NI35
Inadl_9, Q8NI35, sequence (Q8NI35 1530-1615): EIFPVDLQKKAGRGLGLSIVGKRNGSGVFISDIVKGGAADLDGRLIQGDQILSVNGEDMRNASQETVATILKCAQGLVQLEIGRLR

LDB3, O75112 = target: LDB3, O75112
LDB3, O75112, sequence (O75112 1-94): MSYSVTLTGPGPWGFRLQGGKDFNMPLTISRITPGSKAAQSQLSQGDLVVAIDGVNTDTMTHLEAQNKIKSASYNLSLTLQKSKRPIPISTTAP

LIN7C, Q9NUP9 = target: T5, LIN7C, Q9NUP9
T5 sequence (Q9NUP9 88-185, limits assumed, looked up): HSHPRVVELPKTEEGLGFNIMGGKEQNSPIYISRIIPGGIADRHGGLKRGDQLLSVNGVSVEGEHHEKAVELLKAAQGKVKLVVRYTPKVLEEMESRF

LNX2_2, Q8N448 = target: T6, LNX2_2, Q8N448
T6 sequence (Q8N448 334-432, limits assumed, looked up): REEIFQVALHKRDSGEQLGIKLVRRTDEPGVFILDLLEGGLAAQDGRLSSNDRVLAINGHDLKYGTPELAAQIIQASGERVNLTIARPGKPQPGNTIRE

MAGI1_2, Q96QZ7 = target: MAGI1_2, Q96QZ7
MAGI1_2, Q96QZ7, sequence (Q96QZ7 456-580): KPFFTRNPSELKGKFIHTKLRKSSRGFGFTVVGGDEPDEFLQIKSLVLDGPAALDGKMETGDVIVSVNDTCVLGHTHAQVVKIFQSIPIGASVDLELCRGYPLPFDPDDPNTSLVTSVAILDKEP

MAGI2_2, Q86UL8 = target: MAGI2_2, Q86UL8
MAGI2_2, Q86UL8, sequence (Q86UL8 410-522): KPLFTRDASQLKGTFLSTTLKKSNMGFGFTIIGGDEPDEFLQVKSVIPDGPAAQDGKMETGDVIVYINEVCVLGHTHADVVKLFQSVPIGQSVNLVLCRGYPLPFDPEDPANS

MAGI2_6, Q86UL8 = target: MAGI2_6, Q86UL8
MAGI2_6, Q86UL8, sequence (Q86UL8 1141-1229): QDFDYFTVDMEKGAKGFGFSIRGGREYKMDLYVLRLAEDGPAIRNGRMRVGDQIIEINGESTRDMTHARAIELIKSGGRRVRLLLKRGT

MAST1, Q9Y2H9 = target: MAST1, Q9Y2H9
MAST1, Q9Y2H9, sequence (Q9Y2H9 962-1065): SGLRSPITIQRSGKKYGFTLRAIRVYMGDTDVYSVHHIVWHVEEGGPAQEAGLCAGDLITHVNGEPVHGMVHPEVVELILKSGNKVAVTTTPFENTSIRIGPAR

MPP2, Q14168 = target: T7, MPP2, Q14168
T7 sequence (Q14168 180-250, limits assumed, looked up): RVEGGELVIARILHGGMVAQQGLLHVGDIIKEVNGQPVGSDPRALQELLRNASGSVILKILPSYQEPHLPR

MPP6, Q9NZW5 = target: T8, MPP6, Q9NZW5
T8 sequence (Q9NZW5 125-219, limits assumed, looked up): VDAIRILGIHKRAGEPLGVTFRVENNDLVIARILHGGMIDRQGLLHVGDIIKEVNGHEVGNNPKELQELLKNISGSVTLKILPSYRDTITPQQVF

NOS1, P29475 = target: NOS1, P29475
NOS1, P29475, sequence (P29475 9-101): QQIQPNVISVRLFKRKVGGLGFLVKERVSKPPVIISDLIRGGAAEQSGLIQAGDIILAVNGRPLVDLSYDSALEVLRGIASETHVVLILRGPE

PICK1, Q9NRD5 = target: PICK1, Q9NRD5
PICK1, Q9NRD5, sequence (Q9NRD5 17-115): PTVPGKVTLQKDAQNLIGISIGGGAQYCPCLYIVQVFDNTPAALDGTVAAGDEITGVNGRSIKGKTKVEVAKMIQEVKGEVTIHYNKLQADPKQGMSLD

PTPN13_1, Q12923 = target: T9, PTPN13_1, Q12923
T9 sequence (Q12923 1088-1188, limits assumed, looked up): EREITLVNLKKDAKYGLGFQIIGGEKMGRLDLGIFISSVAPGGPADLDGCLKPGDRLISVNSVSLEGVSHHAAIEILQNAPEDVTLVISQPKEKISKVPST

PTPN3, P26045 = target: PTPN3, P26045
PTPN3, P26045, sequence (P26045 505-587): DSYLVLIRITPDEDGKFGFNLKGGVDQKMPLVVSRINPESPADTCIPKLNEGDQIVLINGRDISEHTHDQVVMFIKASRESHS

SNTA1, Q13424 = target: T10, SNTA1, Q13424
T10 sequence (Q13424 82-180, limits assumed, looked up): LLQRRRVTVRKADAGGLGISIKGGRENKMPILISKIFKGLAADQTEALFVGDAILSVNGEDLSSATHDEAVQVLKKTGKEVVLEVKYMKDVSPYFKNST

TJP1_3, Q07157 = target: TJP1_3, Q07157
TJP1_3, Q07157, sequence (Q07157 416-512): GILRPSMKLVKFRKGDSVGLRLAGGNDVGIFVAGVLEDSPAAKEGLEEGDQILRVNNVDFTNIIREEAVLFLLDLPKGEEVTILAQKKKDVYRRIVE

[1] = plain residues with an end cap or a label only (N-terminal biotin on a linker: ahx)
[2] = plain residues with an end cap or a label only (N-terminal biotin on a linker: ado-ado)
[3] = plain residues with an end cap or a label only (N-terminal biotin on a linker: ttds)
[4] = plain residues with an end cap or a label only (N-terminal biotin on a linker: ado-ado, ttds)

Measured: pKd

SKKNELFSNL [NHERF1, O14745]
3.6: MAST1, Q9Y2H9; [1]
below the threshold: APBA2_1, Q99767; [1] | CASK, O14936; [1] | DFNB31_1, Q9P202; [1] | DFNB31_3, Q9P202; [1] | DLG1_1, Q12959; [1] | DLG2_2, Q15700; [1] | DLG3_1, Q92796; [1] | FRMPD2_3, Q68DX3; [1] | GOPC, Q9HD26; [1] | GORASP1, Q9BQQ3; [1] | HTRA2, O43464; [1] | Inadl_5, Q8NI35; [1] | Inadl_8, Q8NI35; [1] | Inadl_9, Q8NI35; [1] | LDB3, O75112; [1] | LIN7C, Q9NUP9; [1] | LNX2_2, Q8N448; [1] | MAGI1_2, Q96QZ7; [1] | MAGI2_2, Q86UL8; [1] | MAGI2_6, Q86UL8; [1] | MPP2, Q14168; [1] | MPP6, Q9NZW5; [1] | NOS1, P29475; [1] | PICK1, Q9NRD5; [1] | PTPN13_1, Q12923; [1] | PTPN3, P26045; [1] | SNTA1, Q13424; [1] | TJP1_3, Q07157; [1]

ELKAEDEVQI [DCHS2, Q6V1P9]
below the threshold: APBA2_1, Q99767; [2] | CASK, O14936; [2] | DFNB31_1, Q9P202; [2] | DFNB31_3, Q9P202; [2] | DLG1_1, Q12959; [2] | DLG2_2, Q15700; [2] | DLG3_1, Q92796; [2] | FRMPD2_3, Q68DX3; [2] | GOPC, Q9HD26; [2] | GORASP1, Q9BQQ3; [2] | HTRA2, O43464; [2] | Inadl_5, Q8NI35; [2] | Inadl_8, Q8NI35; [2] | Inadl_9, Q8NI35; [2] | LDB3, O75112; [2] | LIN7C, Q9NUP9; [2] | MAGI1_2, Q96QZ7; [2] | MAGI2_2, Q86UL8; [2] | MAGI2_6, Q86UL8; [2] | MAST1, Q9Y2H9; [2] | MPP2, Q14168; [2] | MPP6, Q9NZW5; [2] | PTPN13_1, Q12923; [2] | PTPN3, P26045; [2] | SNTA1, Q13424; [2] | TJP1_3, Q07157; [2]
3.74: NOS1, P29475; [2]
4.13: PICK1, Q9NRD5; [2]
3.71: LNX2_2, Q8N448; [2]

PPRQRSETQV [HPV82-E6, Q9IR59]
4.12: DLG3_1, Q92796; [3]
4.75: DLG1_1, Q12959; [3]
5.54: MAGI1_2, Q96QZ7; [3]
3.64: LIN7C, Q9NUP9; [3]
below the threshold: APBA2_1, Q99767; [3] | CASK, O14936; [3] | DFNB31_1, Q9P202; [3] | DFNB31_3, Q9P202; [3] | FRMPD2_3, Q68DX3; [3] | GORASP1, Q9BQQ3; [3] | HTRA2, O43464; [3] | Inadl_8, Q8NI35; [3] | Inadl_9, Q8NI35; [3] | LDB3, O75112; [3] | MPP2, Q14168; [3] | MPP6, Q9NZW5; [3] | PICK1, Q9NRD5; [3] | PTPN13_1, Q12923; [3] | TJP1_3, Q07157; [3]
3.88: NOS1, P29475; [3]
4.31: PTPN3, P26045; [3]
5.89: MAGI2_2, Q86UL8; [3]
3.63: GOPC, Q9HD26; [3]
3.31: Inadl_5, Q8NI35; [3]
4.41: MAST1, Q9Y2H9; [3]
3.73: LNX2_2, Q8N448; [3]
4.15: SNTA1, Q13424; [3]
4.79: DLG2_2, Q15700; [3]
3.46: MAGI2_6, Q86UL8; [3]

SNAKAVETDV [KCNA4, P22459]
4.7: SNTA1, Q13424; [4]
4.53: PTPN3, P26045; [4]
5: DLG2_2, Q15700; [4]
4.72: DLG1_1, Q12959; [4]
3.48: NOS1, P29475; [4]
4.35: MAGI2_6, Q86UL8; [4]
below the threshold: APBA2_1, Q99767; [4] | CASK, O14936; [4] | DFNB31_1, Q9P202; [4] | DFNB31_3, Q9P202; [4] | FRMPD2_3, Q68DX3; [4] | GOPC, Q9HD26; [4] | GORASP1, Q9BQQ3; [4] | HTRA2, O43464; [4] | Inadl_5, Q8NI35; [4] | Inadl_8, Q8NI35; [4] | Inadl_9, Q8NI35; [4] | LDB3, O75112; [4] | LIN7C, Q9NUP9; [4] | MAGI1_2, Q96QZ7; [4] | MAGI2_2, Q86UL8; [4] | MPP2, Q14168; [4] | MPP6, Q9NZW5; [4] | PICK1, Q9NRD5; [4] | PTPN13_1, Q12923; [4] | TJP1_3, Q07157; [4]
3.51: LNX2_2, Q8N448; [4]
4.25: DLG3_1, Q92796; [4]
4.32: MAST1, Q9Y2H9; [4]

SSIDLWETAL [SLC15A5, A6NIM6]
5.08: MAGI2_6, Q86UL8; [3]
3.92: LDB3, O75112; [3]
4.85: GOPC, Q9HD26; [3]
5.21: LIN7C, Q9NUP9; [3]
5.45: MAST1, Q9Y2H9; [3]
5.19: SNTA1, Q13424; [3]
4.02: GORASP1, Q9BQQ3; [3]
4.97: DFNB31_1, Q9P202; [3]
below the threshold: APBA2_1, Q99767; [3] | CASK, O14936; [3] | DFNB31_3, Q9P202; [3] | FRMPD2_3, Q68DX3; [3] | HTRA2, O43464; [3] | Inadl_5, Q8NI35; [3] | Inadl_8, Q8NI35; [3] | LNX2_2, Q8N448; [3] | MAGI1_2, Q96QZ7; [3] | MPP2, Q14168; [3] | MPP6, Q9NZW5; [3] | PICK1, Q9NRD5; [3] | PTPN13_1, Q12923; [3] | TJP1_3, Q07157; [3]
4.43: DLG1_1, Q12959; [3]
3.88: DLG2_2, Q15700; [3]
5.4: PTPN3, P26045; [3]
3.7: Inadl_9, Q8NI35; [3]
3.87: DLG3_1, Q92796; [3]
4.33: MAGI2_2, Q86UL8; [3]
4.36: NOS1, P29475; [3]
